Where a chain is given by its changes, count along the chain named. Each block holds one binder with its values, some of them ahead of it.
Molecular target: TSLP, Q969D9
Test: Kd (SPR)

- Kd: 0.0908 µM
B1: unnamed (protein)
chain 1: QMQLVESGGGVVQPGRSLRLSCAASGFTFSTFAMHWVRQAPGKGLEWVAVIWYDGSNKHYADSVKGRFTITRDNSKNTLNLQMNSLRAEDTAVYYCARAPRYDWYYEAFDVWGQGTMVTVSS
chain 2: SYVLTQPPSVSVAPGQTARITCGGNNLGSKSVHWYQQKPGQAPVLVVYDDSDRPSWIPERFSGSNSGNTATLTISRGEAGDEADYYCQVWDSSSDHVVFGGGTKLTVL

- Kd: 0.0626 µM
B2: unnamed (protein)
chain 1: B1 chain 1 with D103Y, W104D, Y106L
chain 2: B1 chain 2

- Kd: 0.0871 µM
B3: unnamed (protein)
chain 1: B1 chain 1 with F32Y, D103Y
chain 2: B1 chain 2

- Kd: 0.0568 µM
B4: unnamed (protein)
chain 1: B1 chain 1 with D103Y, W104D
chain 2: B1 chain 2

- Kd: 0.633 µM
B5: unnamed (protein)
chain 1: B1 chain 1 with F32Y, W104E, Y106W
chain 2: B1 chain 2

- Kd: 0.894 µM
B6: unnamed (protein)
chain 1: B1 chain 1 with W104E, Y105D, Y106W
chain 2: B1 chain 2

- Kd: 0.0966 µM
B7: unnamed (protein)
chain 1: B1 chain 1 with D103Y
chain 2: B1 chain 2

- Kd: 0.0925 µM
B8: unnamed (protein)
chain 1: B1 chain 1 with W104D
chain 2: B1 chain 2

- Kd: 0.0805 µM
B9: unnamed (protein)
chain 1: B1 chain 1 with A99S, W104D, Y106L
chain 2: B1 chain 2

- Kd: 0.836 µM
B10: unnamed (protein)
chain 1: B1 chain 1 with F32Y, A99S, W104E, Y106W
chain 2: B1 chain 2

- Kd: 0.777 µM
B11: unnamed (protein)
chain 1: B1 chain 1 with W104E, Y105H
chain 2: B1 chain 2

- Kd: 0.686 µM
B12: unnamed (protein)
chain 1: B1 chain 1 with F32Y, W104E, Y105R
chain 2: B1 chain 2

- Kd: 0.106 µM
B13: unnamed (protein)
chain 1: B1 chain 1 with D103Y, W104E
chain 2: B1 chain 2

- Kd: 0.057 µM
B14: unnamed (protein)
chain 1: B1 chain 1 with F32Y, A99S, D103Y, W104E
chain 2: B1 chain 2

- Kd: 0.0418 µM
B15: unnamed (protein)
chain 1: B1 chain 1 with A99S, D103Y, W104D
chain 2: B1 chain 2

- Kd: 0.759 µM
B16: unnamed (protein)
chain 1: B1 chain 1 with F32Y, Y106W
chain 2: B1 chain 2

- Kd: 0.366 µM
B17: unnamed (protein)
chain 1: B1 chain 1 with W104E, Y105R
chain 2: B1 chain 2

- Kd: 0.112 µM
B18: unnamed (protein)
chain 1: B1 chain 1 with W104D, Y105D
chain 2: B1 chain 2

- Kd: 0.0445 µM
B19: unnamed (protein)
chain 1: B1 chain 1 with A99S, D103Y, W104E
chain 2: B1 chain 2

From the FLAb antibody collection (doi:10.1101/2023.12.08.570889)
